Data as given in patent US20250026849A1 (ARCELLX, published 2025).

T1: BCMA (Homo sapiens (Human), UniProt Q02223 1-54, limits assumed)
T1 sequence: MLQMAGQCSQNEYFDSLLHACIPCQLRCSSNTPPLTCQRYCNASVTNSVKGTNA


Molecular target: T1, BCMA
Assay: ELISA, format not described
Parameters: unit not given here

ELISA_avg	Binder
11.3	D-domain SEQ ID NO: 280 (designed binder) MGSWSEFKYKLALIKWYLEALGGSEAELAHFEGWIANFETTLQKYKGKGNPEVEALRKEAAAIRDELQAYRHN
14.9	D-domain SEQ ID NO: 281 (designed binder) MGSWIEFKYKLAIIKFYLEALGGSEAELAHFEHWIADFEFVLQQYKGKGNPEVEALRKEAAAIRDELQAYRHN
9.34	D-domain SEQ ID NO: 285 (designed binder) MGSWSHFKYHLAIIKFYLEALGGSEAELAGFEIWIAKFEDELQMYKGKGNPEVEALRKEAAAIRDELQAYRHN
18.1	D-domain SEQ ID NO: 304 (designed binder) MGSWSYFKYGLATIKEKLEALGGSEAELADFETWIAMFEKQLQEYKGKGNPEVEALRKEAAAIRDELQAYRHN
21.1	D-domain SEQ ID NO: 301 (designed binder) MGSWIYFKYGLAHIKTRLEALGGSEAELADFEQWIAEFEKMLQDYKGKGNPEVEALRKEAAAIRDELQAYRHN
17.6	D-domain SEQ ID NO: 300 (designed binder) MGSWSYFKWGLAHIKLRLEALGGSEAELADFEFWIAEFEGLLQDYKGKGNPEVEALRKEAAAIRDELQAYRHN
10.3	D-domain SEQ ID NO: 306 (designed binder) MGSWQYFKYGLAIIKIKLEALGGSEAELADFEAWIATFEKQLQHYKGKGNPEVEALRKEAAAIRDELQAYRHN
18.4	D-domain SEQ ID NO: 299 (designed binder) MGSWSYFKFGLAHIKLRLEALGGSEAELADFEQWIASFEEQLQTYKGKGNPEVEALRKEAAAIRDELQAYRHN
21.4	D-domain SEQ ID NO: 307 (designed binder) MGSWVYFKHGLAVIKMRLEALGGSEAELADFETWIAQFEMTLQEYKGKGNPEVEALRKEAAAIRDELQAYRHN
18.4	D-domain SEQ ID NO: 303 (designed binder) MGSWEYFKYGLATIKMHLEALGGSEAELADFEHWIAHFEHQLQMYKGKGNPEVEALRKEAAAIRDELQAYRHN
14	D-domain SEQ ID NO: 302 (designed binder) MGSWGYFKYGLATIKHRLEALGGSEAELADFELWIAKFEEQLQVYKGKGNPEVEALRKEAAAIRDELQAYRHN
13.3	D-domain SEQ ID NO: 298 (designed binder) MGSWSYFKYGLAIIKIRLEALGGSEAELADFERWIAAFEHDLQYYKGKGNPEVEALRKEAAAIRDELQAYRHN
19.9	D-domain SEQ ID NO: 305 (designed binder) MGSWHYFKNGLAIIKEKLEALGGSEAELADFEIWIAMFEMELQEYKGKGNPEVEALRKEAAAIRDELQAYRHN
17.6	D-domain SEQ ID NO: 308 (designed binder) MGSWVYFKYGLAVIKEKLEALGGSEAELADFETWIAEFEFGLQQYKGKGNPEVEALRKEAAAIRDELQAYRHN
10.4	D-domain SEQ ID NO: 274 (designed binder) MGSWVDFKYHLAVIKWYLEALGGSEAELADFENWIAHFESILQQYKGKGNPEVEALRKEAAAIRDELQAYRHN
18.4	D-domain SEQ ID NO: 284 (designed binder) MGSWYQFKYHLAIIKWYLEALGGSEAELAGFENYIATFEQELQQYKGKGNPEVEALRKEAAAIRDELQAYRHN

ELISA_avg	Binder
6.3	D-domain SEQ ID NO: 279 (designed binder) MGSWLSFKHHLALIKWYLEALGGSEAELASFEAWIALFEHQLQQYKGKGNPEVEALRKEAAAIRDELQAYRHN
6.92	D-domain SEQ ID NO: 275 (designed binder) MGSWVEFKYHLAVIKFTLEALGGSEAELADFEEEIARFEMILQQYKGKGNPEVEALRKEAAAIRDELQAYRHN
9.71	D-domain SEQ ID NO: 286 (designed binder) MGSWVGFKAHLAIIKWYLEALGGSEAELAGFEIFIADFEALLQMYKGKGNPEVEALRKEAAAIRDELQAYRHN
9.55	D-domain SEQ ID NO: 282 (designed binder) MGSWQNFKYHLAMIKWYLEALGGSEAELANFEEFIAQFEINLQHYKGKGNPEVEALRKEAAAIRDELQAYRHN
8.63	D-domain SEQ ID NO: 283 (designed binder) MGSWYNFKYHLAIIKWWLEALGGSEAELADFEHYIADFERNLQEYKGKGNPEVEALRKEAAAIRDELQAYRHN
7.23	D-domain SEQ ID NO: 295 (designed binder) MGSWFYFKQKLAFIKWYLEALGGSEAELANFEIYIAEFEVMLQQYKGKGNPEVEALRKEAAAIRDELQAYRHN
6.45	D-domain SEQ ID NO: 296 (designed binder) MGSWFSFKHHLAVIKWNLEALGGSEAELASFEEQIAEFESVLQAYKGKGNPEVEALRKEAAAIRDELQAYRHN
7.39	D-domain SEQ ID NO: 287 (designed binder) MGSWVNFKYKLAIIKYMLEALGGSEAELAFFEDWIAEFERTLQQYKGKGNPEVEALRKEAAAIRDELQAYRHN
4.54	D-domain SEQ ID NO: 294 (designed binder) MGSWYKFKHKLAVIKYMLEALGGSEAELAWFEEWIAEFEVTLQDYKGKGNPEVEALRKEAAAIRDELQAYRHN
13.9	D-domain SEQ ID NO: 290 (designed binder) MGSWTGFKYRLAIIKFMLEALGGSEAELAFFEQWIADFENELQYYKGKGNPEVEALRKEAAAIRDELQAYRHN
12	D-domain SEQ ID NO: 292 (designed binder) MGSWFAFKHRLAVIKYMLEALGGSEAELAFFEHWIAQFEHDLQQYKGKGNPEVEALRKEAAAIRDELQAYRHN
3.71	D-domain SEQ ID NO: 293 (designed binder) MGSWYEFKHRLAVIKYMLEALGGSEAELAFFENWIAQFEHELQTYKGKGNPEVEALRKEAAAIRDELQAYRHN
13.6	D-domain SEQ ID NO: 291 (designed binder) MGSWHNFKYRLAIIKFMLEALGGSEAELAWFENWIADFEDSLQDYKGKGNPEVEALRKEAAAIRDELQAYRHN
9.34	D-domain SEQ ID NO: 288 (designed binder) MGSWSNFKYRLAVIKYMLEALGGSEAELAFFEDWIADFELHLQVYKGKGNPEVEALRKEAAAIRDELQAYRHN
11.4	D-domain SEQ ID NO: 289 (designed binder) MGSWTNFKYKLAVIKFMLEALGGSEAELAFFEDWIAGFEIDLQNYKGKGNPEVEALRKEAAAIRDELQAYRHN
22.7	D-domain SEQ ID NO: 297 (designed binder) MGSWGNFKYRLAIIKFHLEALGSSEAELATFEAWIANFESMLQNYKGKGNPEVEALRKEAAAIRDELQAYRHN
